# Test results published in the DeepSol protein solubility set.
# Assay: soluble on expression in E. coli; label from the status in PepcDB or PDB records
row,Sequence,soluble on expression in E. coli
1,MADLLPPLTAAQVDAKTKVDEKVDYSNLPSPVPYEELHREALMSLKSDNFEGLRFDFTRALNQKFSLSHSVMMGPTEVPAQSPETTIKIPTAHYEFGANYYDPKLLLIGRVMTDGRLNARLKADLTDKLVVKANALITNEEHMSQAMFNFDYMGSDYRAQLQLGQSALIGATYIQSVTNHLSLGGEIFWAGVPRKSGIGYAARYETDKMVASGQVASTGAVVMNYVQKISDKVSLATDFMYNYFSRDVTASVGYDYMLRQARVRGKIDSNGVASALLEERLSMGLNFLLSAELDHKKKDYKFGFGLTVG,not soluble
2,MGSDKIHHHHHHMRICPVPRSAPAGCARIRCLRRCAVFGRSCPKLGLWSSGARTLSHPPCADVNWPNTLCAQHVACALRSHCLTLRAPHALLGRAVRKAGDLMTTAGFQSIDAVQSELSEAGYVCGRALATVVFLSTRLGRPLFLEGEAGVGKTEIAKALAAVTGRPLIRLQCYEGLDAASAVYEWNFAAQMMAIRMAESAGQSDREALQAELFSQDYLIARPLLQAMQPDARGTPILLIDELDRTDAPFEAFLLEALSDFQVTIPELGTIRAPEPPMVILTSNRTREVHDALKRRCLYHWVDYPDFDRELEILTAQVPTASEALSRQVVAFVQSLRTEDLFKKPGVAETIDWANCLLALDVVNLSPETIADTLGALLKYQDDIARLQGSEAKRLLDEARSLLQEH,not soluble
3,MHNNENVSGISAYLLGLIWGDGGLYKLKYKGNRSEYRVVITQKSENLIKQFIAPRMQFLIDELNVKSKIQIVKGDTRYELRVSSKKLYYYFANMLERIRLFNGNRFLAYLAGIVDGDGSIIAQIKPNQSYKFKHQLSLTFQVTQKTERRWFLDKLVDEIGVGYVRDRGSVSDYILSEIKPLHNFLTQLQPFLNFKQKQANLVLKIIEQLPSAKESPDKFLEVCTWVDQIAALNDSKTRKTTSETVRAVLDSLSEKKKSSP,soluble
4,MRLEECNILFELLTEIQDEAGSMEKIVHKTLQRLSQLLAADRCSMFICRSRNGIPEVATRLLNVTPTSKFEDNLVNPDKETVFPLDIGIAGWVAHTKKFFNIPDVKKNNHFSDYLDKKTGYTTVNMMAIPITQGKEVLAVVMALNKLNASEFSKEDEEVFKKYLNFISLVLRLEHHHHHH,soluble
5,MAHHHHHHMEAFAITPLAEDDTTFVKDAQQFLAVIADMQREAEQRRCLLDDLRQKEAAAEMELEKCLAVREAVVARMAHTKAEGLELQSEYKALTTQQRAVEAEVLELRRQKSHWKKVLQEFQGSSSSSHLLGSGNTDGATVKSASSLDRALHAWSQLPHGSMFLKELKKTLTEFVAELAVNAGSNTNDNSNTTHNGTSTEYTTAFLDPSSVFPHLPPLSKVEEAIILLIPFSA,not soluble
6,MFVMEKVLFPFSAVVDEDDLKMALILNAIDQRIGGVLIMGPKGVAKSTIARSLTDLLPDIDVVKDCPFKCDPHDPSSMCDECIKKYRDGTIVSEKRKIPFVNMPVTATLDRVVGSLDIKRAIDEGLRALQPGLLAEANRGIIYIDEVNLLDDSVVDSILDSAASGINVVEREGVSVTHPARFILIGTMNPEEGDLRPQLKDRFGLSVTAVQPSDPEELIEISNRVEEFDRDPEAFRRKYEKIQNEIRNRIMRARSLLPSVVIDEDLKRFIAEVVIKLQAGNRAMITAVKASKAIAAFNGRDRVNIDDVKEALNLVLKHRVKDSAMIRGTIEKESRDLSTRSVEAGPHSGYEEGSESSGRRDMKAGNGKDEEKDVEVSAAFDEESNRSGRTGNADIFRILDQNRPGDHFDYRASLVNMIMNGRRRMKYEDLAFVSSRSRASIPVILAVDASRSMETMHRIALARGIARSFLHSAYRMRVKLSYITFYGTESHLMVEPTRNLDLIDREISRTVPQGKTPIPAALKMMYDISSRYRQRTVSIMITDGRANVPLGNDVTHDVREWSAKLGTRSDLFLISSTMGSERFMPSYNEDICRYSGGQLIEMDGNGHIALYSGYRRY,soluble
7,GSMSLPPIRLPSPYGSDRLVQLAARLRPALCDTLITVGSQEFPAHSLVLAGVSQQLGRRGQWALGEGISPSTFAQLLNFVYGESVELQPGELRPLQEAARALGVQSLEEACWRARGDRA,soluble
8,MPGDSMCQAMAGNERHMLTSVKTGTYTMPVLHNRVSNEELKARMLAETEPRTTVSFYKYFTIDDPKAFRDRLYIQLEQYKVFGRIYIAAEGINAQISVPNNQFDAFKTGLFSAHPALDQIRLNIALEDDGKSFWVLRMKVRERIVADGIDDPTFNPANVGQYLKADRVNAMADDPDTVFVDMRNHYEYEVGHFQNALEVPSDTFREQLPMAVDMLDDIRDKNIVMYCTGGIRCEKASAYMLHHGFKNVYHVEGGIIEYARQAKAQGLPLKFIGKNFVFDERMGERISDDVIAHCHQCGASCDSHTNCRNEGCHLLFIQCPSCAAKYEGCCSTQCQDEMKLPLEEQRAIRSGRENGMKIFNKSKGLLQSTLHIPAPAAKDNAELEHHHHHH,not soluble
9,MGSDKIHHHHHHMATLLTLLLLFATPIAIRAEEFVWPEPSNAIERKFEKAALTSDNAACSKIGGEILRKGGNSIDASIASMFCLGVVNPQSSGIGGGFLMTYFDQKSGDCYSIDARETAPAAASRDMFLNDSDGSKYGFKAAGTPGEIAGYWHIFKKFGSGKVTWKELVQPSVKLAREGHPVSPYLATVMKVKERHFRLFPSVKASSIKLSMFYRHWINPETNDTYQSGDLLKRPKLAKTLERLGNSPNPVQLFYHGEMAKTLAKEFQEGGGLITEQDLANYKVREYVNSNSNDHFRGTLTMCGGPPPSSFGVTQLIVSAMSKLFPEGHKDDIYNDPKVLHKYIEAMKFAYAQRTLLGDHDFVKGALELSKNLTTPEYTQWVIDRMTDKAQSSKNYGGIAQYVPPDHGTSHVSAMDQYGNGVSATTTINRWFGAAVESSEYGILWNDEMDDFSTPGMENGFGFAPSETNFIEPGKRPMSSMSPMVIFDHVTKKVRMVIGGSGGSKIISALAKSIVRSLIFHDSIKKAIDAPMIHNQFTPDITQLDDEFPINMKNILESEYLQKFRNTTGFEGIIQGVNVLNDGIYACGDYRRKTDQEPSGF,not soluble
10,MGSDKIHHHHHHMRKNRITEMLATASTIVLDGALATELEARGCDLTDPLWSAKVLVENPALIYQVHFDYFKAGAQCAITASYQATPQGFEARGYSEAESLALIAKSVQLAAQARDDYRRDNTQAGTLLVAGSVGPYGAYLADGSEYRGDYQLPQADMMAFHRPRIAALHEAGADLLACETLPSFAEIEALIALLAEFPQAQAWFSFTLRDSEHLSDGTPLRTVLERVNACSQVVAVGLNCIALEKVTPALMHLSSLTDLPLVVYPNSGEQYDAVTKTWSSAHDTACSLTAYLPEWQTAGARLIGGCCRTTPADIAGIARCCQQ,not soluble
11,MRTDLALDFSVNKENKTITIKREFAAVRAIVWEAFTRAEILDQWWAPKPWKAKTKSMDFKEGGTWLYAMVGPNGEEHWSICEYAIIKPIERFTGKDGFTDASGKLNTEMPRSNWDMRFIDKGEITEVQYHISYDDVAQLEATIQMGFKEGITMAMENLDELLVSGKKLEHHHHHH,soluble
12,GMDTNGVLYAANMTNALAKEIPESKWDIQLIPELGTLRKLFIHIVRVRDVYRDGLKTGSIKFPGRLASDEHRLLDELERSMEELVFEFKQTTFNSIKMGENYLSIMELLGTVIQHEGIHQGQYYVALKQSGINLPKQWVQDWHM,soluble
13,MAGRRRWSTEQILDAAAELLLAGDAETFSVRKLAASLGTDSSSLYRHFRNKTELLRAVADRILLSAMDGYRPEGDWKQRLTAVALRLRESFGQQPQLAAVWGRHGSGGTGSRLMMEEVLQALRASGLPDDEIPARYHRLVILISSLITAEGGFGAVGAQEHEQGMEQFRVAVLGADPERFPALSHFAREIRPLGADRGAAFEEILAAHLAHLEAAAP,soluble
14,MSLSSPRIIATYHLASDADLVAERAKGLAIEQSVECPLAAVGDPVILDTIVGRVEDIAELTPGRYAVRIGLAAATAPAEPGQLINMLFGNSSMQQDVTLVDVELPPSYLAAFGGPRLGLAGLRALTGTQDRALTASALKPQGLSPAALARIAGQLARGGVDVIKDDHGIADQAYSPFAARVEAVGRAVQEANVARDGHSLYAPNLSGTLDDMRRQLDLAREQGIAAVMVAPMIVGLANFHAVVKAAAGMVVIAHPALSGVTRIAPPLLLGKLFRLFGADATIFPNAGGRFGFSTETCLQLARAGRDPWGALEPCMPVPAGGLTADRVAELLQFYGHDVMLLIGGGLLSARERLTEEAARFVNEVAAHGKAEGHHHHHH,soluble
